Data published in US20250257126A1 (CAMBRIDGE ENTERPRISE, published 2025).

Assays:
[1] = molecular target: T1, endogenous human LGR5 of cancer cell lines (human, UniProt O75473 22-907); experiment: cell-based or functional assay
T1 sequence: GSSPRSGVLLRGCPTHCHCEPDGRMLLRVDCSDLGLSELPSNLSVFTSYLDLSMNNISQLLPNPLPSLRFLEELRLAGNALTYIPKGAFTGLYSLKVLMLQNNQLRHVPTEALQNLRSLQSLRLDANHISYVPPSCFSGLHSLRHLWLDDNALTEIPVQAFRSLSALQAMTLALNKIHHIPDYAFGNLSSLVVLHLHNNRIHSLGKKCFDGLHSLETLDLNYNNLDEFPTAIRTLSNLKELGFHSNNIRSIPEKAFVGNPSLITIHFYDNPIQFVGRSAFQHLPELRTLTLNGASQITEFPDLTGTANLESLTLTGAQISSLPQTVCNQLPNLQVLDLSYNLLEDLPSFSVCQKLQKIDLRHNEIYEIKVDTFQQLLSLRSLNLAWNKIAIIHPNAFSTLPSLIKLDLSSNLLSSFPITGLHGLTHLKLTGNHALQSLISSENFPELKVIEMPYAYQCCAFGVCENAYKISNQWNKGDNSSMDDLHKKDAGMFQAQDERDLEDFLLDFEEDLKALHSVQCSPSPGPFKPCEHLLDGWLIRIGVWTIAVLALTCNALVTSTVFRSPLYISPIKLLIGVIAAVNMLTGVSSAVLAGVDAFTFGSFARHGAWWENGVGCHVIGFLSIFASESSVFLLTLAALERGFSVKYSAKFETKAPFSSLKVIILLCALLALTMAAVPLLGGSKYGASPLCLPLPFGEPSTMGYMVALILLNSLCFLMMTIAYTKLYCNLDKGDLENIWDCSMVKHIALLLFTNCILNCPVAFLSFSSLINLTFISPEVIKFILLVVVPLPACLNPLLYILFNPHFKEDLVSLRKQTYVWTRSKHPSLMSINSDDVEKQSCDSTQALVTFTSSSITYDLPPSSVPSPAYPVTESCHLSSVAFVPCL

[2] = molecular target: T2, RAD-displayed Fragment 1A of human LGR5 (human); experiment: bio-layer interferometry (Octet), captured RAD-displayed fragment
T2 construct: also called Frag1A
T2 sequence (O75473 22-37, looked up): GSSPRSGVLLRGCPTH

murine LGR6 transgene = molecular target: T3, murine LGR6 transgene (mouse, UniProt Q3UVD5 23-967); experiment: western blot of lysates of HEK293T cells expressing the LGR transgenes
T3 construct: whole, on cells; also called mLGR6
T3 sequence (looked up): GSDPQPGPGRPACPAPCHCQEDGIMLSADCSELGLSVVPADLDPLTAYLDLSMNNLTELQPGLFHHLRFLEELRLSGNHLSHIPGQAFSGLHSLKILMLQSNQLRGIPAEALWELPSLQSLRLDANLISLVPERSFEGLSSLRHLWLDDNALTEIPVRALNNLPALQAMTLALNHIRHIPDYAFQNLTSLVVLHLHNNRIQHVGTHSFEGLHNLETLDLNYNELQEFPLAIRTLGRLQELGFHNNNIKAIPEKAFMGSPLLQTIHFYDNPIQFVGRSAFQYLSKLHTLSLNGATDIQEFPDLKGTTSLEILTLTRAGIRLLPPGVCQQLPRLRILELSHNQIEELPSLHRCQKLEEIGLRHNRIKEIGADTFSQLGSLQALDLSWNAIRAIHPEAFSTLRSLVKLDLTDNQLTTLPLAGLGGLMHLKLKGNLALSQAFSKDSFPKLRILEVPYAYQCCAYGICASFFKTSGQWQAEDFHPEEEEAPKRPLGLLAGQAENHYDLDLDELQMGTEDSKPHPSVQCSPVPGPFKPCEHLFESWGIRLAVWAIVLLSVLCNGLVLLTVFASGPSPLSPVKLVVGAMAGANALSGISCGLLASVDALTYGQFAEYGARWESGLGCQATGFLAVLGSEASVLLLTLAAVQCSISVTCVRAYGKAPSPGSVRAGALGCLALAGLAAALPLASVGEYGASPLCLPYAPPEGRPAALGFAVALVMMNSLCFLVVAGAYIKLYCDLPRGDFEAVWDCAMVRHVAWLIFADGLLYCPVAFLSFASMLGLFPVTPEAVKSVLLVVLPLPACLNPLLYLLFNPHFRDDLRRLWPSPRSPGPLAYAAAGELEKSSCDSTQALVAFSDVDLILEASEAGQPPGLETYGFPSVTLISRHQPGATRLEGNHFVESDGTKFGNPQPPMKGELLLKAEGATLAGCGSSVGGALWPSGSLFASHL

[3] = molecular target: T2, RAD-displayed Fragment 1A of human LGR5; experiment: bio-layer interferometry (Octet), captured RAD-displayed fragment, 10 µM Fragment 1 peptide included
murine LGR5 transgene = molecular target: T4, murine LGR5 transgene (mouse, UniProt Q9Z1P4 22-907); experiment: flow cytometry of live HEK293T cells expressing LGR-eGFP transgenes, Fl-α-LGR5 against eGFP
T4 construct: whole, on cells; Overexpressed in HEK293T cells with N-terminal HA tag, V2 receptor tail and eGFP; also tested as lysate; also called mLGR5; mLGR5-eGFP
T4 sequence (looked up): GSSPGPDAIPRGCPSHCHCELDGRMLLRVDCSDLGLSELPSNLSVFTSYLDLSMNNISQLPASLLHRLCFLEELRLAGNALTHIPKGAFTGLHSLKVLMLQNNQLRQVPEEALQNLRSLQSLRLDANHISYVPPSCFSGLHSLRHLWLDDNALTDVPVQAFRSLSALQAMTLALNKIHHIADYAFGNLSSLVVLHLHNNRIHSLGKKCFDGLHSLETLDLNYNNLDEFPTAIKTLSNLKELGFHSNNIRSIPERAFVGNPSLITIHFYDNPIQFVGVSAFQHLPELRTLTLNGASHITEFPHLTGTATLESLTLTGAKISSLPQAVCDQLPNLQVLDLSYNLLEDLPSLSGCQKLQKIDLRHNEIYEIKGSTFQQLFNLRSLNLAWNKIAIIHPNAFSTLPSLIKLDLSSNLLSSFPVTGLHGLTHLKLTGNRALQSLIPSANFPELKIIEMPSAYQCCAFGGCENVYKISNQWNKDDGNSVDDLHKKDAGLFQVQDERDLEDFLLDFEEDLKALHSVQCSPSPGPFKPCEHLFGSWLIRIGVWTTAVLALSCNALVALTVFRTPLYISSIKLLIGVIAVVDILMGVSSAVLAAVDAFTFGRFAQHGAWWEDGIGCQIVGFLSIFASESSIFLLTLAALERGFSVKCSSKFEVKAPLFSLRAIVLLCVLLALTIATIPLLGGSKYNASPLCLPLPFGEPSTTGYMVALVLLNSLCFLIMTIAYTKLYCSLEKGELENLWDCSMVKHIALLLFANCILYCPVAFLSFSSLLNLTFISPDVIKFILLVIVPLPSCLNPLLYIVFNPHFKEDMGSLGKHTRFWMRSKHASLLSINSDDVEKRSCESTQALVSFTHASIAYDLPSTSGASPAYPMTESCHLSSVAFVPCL

human LGR4 transgene = molecular target: T5, human LGR4 transgene (human, UniProt Q9BXB1 25-951); experiment: as above
T5 construct: whole, on cells; Overexpressed in HEK293T cells with N-terminal HA tag, V2 receptor tail and eGFP; also tested as lysate; also called hLGR4; LGR4-eGFP

human LGR6 transgene = molecular target: T6, human LGR6 transgene (human, UniProt Q9HBX8 25-967); experiment: immunofluorescence of HEK293T cells expressing LGR-eGFP transgenes, stained with fluorescent clone 2
T6 construct: whole, on cells; Overexpressed in HEK293T cells with N-terminal HA tag, V2 receptor tail and eGFP; also tested as lysate; also called hLGR6; LGR6-eGFP
T6 sequence (looked up): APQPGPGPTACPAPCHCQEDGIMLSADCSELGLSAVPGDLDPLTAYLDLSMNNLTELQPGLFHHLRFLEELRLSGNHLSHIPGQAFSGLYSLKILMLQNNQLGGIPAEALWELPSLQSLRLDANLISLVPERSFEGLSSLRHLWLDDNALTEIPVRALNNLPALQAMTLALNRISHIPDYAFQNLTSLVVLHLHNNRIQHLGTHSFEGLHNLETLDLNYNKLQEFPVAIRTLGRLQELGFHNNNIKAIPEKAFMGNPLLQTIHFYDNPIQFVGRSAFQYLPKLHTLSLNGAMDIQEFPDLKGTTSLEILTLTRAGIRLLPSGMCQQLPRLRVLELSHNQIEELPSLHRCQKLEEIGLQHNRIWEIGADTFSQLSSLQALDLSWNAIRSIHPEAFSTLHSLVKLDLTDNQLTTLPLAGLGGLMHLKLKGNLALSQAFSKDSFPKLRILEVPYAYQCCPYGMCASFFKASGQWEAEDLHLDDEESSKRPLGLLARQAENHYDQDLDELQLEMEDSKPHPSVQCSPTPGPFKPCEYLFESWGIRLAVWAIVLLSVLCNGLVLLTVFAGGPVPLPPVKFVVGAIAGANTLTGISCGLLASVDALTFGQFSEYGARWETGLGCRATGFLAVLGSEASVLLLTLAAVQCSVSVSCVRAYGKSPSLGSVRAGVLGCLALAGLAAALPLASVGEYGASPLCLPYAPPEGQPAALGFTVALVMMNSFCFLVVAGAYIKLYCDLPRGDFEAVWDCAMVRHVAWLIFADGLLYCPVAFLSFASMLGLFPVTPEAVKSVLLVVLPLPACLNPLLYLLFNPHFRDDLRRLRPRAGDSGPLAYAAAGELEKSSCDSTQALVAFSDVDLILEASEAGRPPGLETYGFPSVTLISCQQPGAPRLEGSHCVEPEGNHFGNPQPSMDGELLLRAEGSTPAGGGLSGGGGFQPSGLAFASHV

murine LGR4 transgene = molecular target: T7, murine LGR4 transgene (mouse, UniProt A2ARI4 25-951); experiment: western blot of lysates of HEK293T cells expressing HA-tagged LGR-eGFP transgenes, probed with hybridoma clone 2
T7 construct: whole, on cells; Overexpressed in HEK293T cells with N-terminal HA tag, V2 receptor tail and eGFP; also tested as lysate; also called mLGR4

α-LGR5 epitope peptide = molecular target: T8, α-LGR5 epitope peptide (human); experiment: bio-layer interferometry (Octet), scFv absorbed to Ni-NTA biosensors, epitope peptide SEQ ID NO: 210 added; scFv fragment, not whole IgG
T8 construct: Peptide added to scFv-α-LGR5 absorbed on Ni-NTA biosensors; also called the peptide
T8 peptide: SSPRSGVLLRGCPTHCHC
Protocol: Binding affinities were determined by bio-layer interferometry measurements using the Octet platform.
Binding affinity was determined by biolayer interferometry on the Octet platform.

B1: α-LGR5 clone 2-ADC (antibody, mouse IgG2b, kappa, V domains shown)
VH: QVQLQQPGAELVKPGASVKLSCKASGYTFTNYWMQWVKQRPGQGLEWIGEIDPSDSYTNYNQKFKGKATLTVDTSSSTAYMQLSSLTSEDSAVYYCARSLSGYVDYWGQGTTLTVSS
VL: DIQMTQTTSSLSASLGDRVTISCRASQDISNRLNWYQQKPDGTVKLLISYRSRLHSGVPSRFSGSGSGTDYSLTISNLEQEDIATYFCQQGNSLPPTFGGGTKLEVRR
modifications: MMAE coupled through a divinyl pyrimidine bridging linker inserted within the heavy chain-light chain disulphide linkages, drug-to-antibody ratio of 4
notes: cleavable linker version; also called α-LGR5-ADC
B1 was tested, and the “EC50 of cell killing, LoVo cells” value [1] was 9 nM, the “EC50 of cell killing, NALM6 cells, single dose, three days” value [1] was 4 nM and the “EC50 of cell killing, REH cells” value [1] was 10 nM. For the same binder, the “estimated EC50 for organoid cell apoptosis (cleaved caspase 3), CRC organoid line 1” value [1] was about 5 nM, the “estimated EC50 for organoid cell apoptosis (cleaved caspase 3), CRC organoid line 2” value [1] was about 100 nM and the Kd [2] was 2.7 nM.

B2: α-LGR5 humanized (antibody, V domains shown)
VH: B1 VH
VL: DIQMTQTTSSLSASLGDRVTISCRASQDISNRLNWYQQKPDGTVKLLISYRSRLHSGVPSRFSGSGSGTDYSLTISNLEQEDIATYFCQQGNSLPPTFGGGTKLEVR
notes: Direct transposition of the murine clone 2 variable domains into the human IgG scaffold; also called α-LGR5 humanised
With B2 the Kd [2] was 3.4 nM.

B3: α-LGR5 clone 2 (antibody, mouse IgG2b, kappa, V domains shown)
VH: B1 VH
VL: B1 VL
notes: Murine monoclonal antibody; In immunofluorescence and flow cytometry it carried a fluorophore (Alexa647 or DyLight 650) and is given as FI-α-LGR5 / FL-α-LGR5; also called a-LGR5; hybridoma clone 2
With B3 the binding result (murine LGR6 transgene) was “no binding”, the Kd [3] was 1.1 nM and the binding result (murine LGR5 transgene) was “no binding”. B3: no binding (human LGR4 transgene); no binding (human LGR6 transgene); no binding (murine LGR4 transgene).

B4: scFv-α-LGR5 (scFv)
scFv: EIVMTQSPATLSLSPGERATLSCRASQDISNRLNWYQQKPGQAVRLLISYRSRRHTGIPARFSGSGSGTDYTLTISSLEPEDFAVYYCQQGNSLPPTFGGGTKLEIKGGGGSGGGGSGGGGSGGGGSQVQLVQSGAEVKKPGASVKVSCKASGYTFTNYWMQWVRQAPGQGLEWIGEIDPSDSYTNYNQKFQGRVTLTVDTSTSTAYMELSSLRSEDTAVYYCARSLSGYVDYWGQGTTVTVSS
notes: Made from human variant 4 (clone 2.4), VL-linker-VH; The protein in the Octet assay was 6xHis-tagged; also called scFv fragment; svFv-α-LGR5
With B4 the Kd (α-LGR5 epitope peptide) was 0.77 nM.

B5: α-LGR5 variant 4-ADC (antibody, human IgG1, kappa, V domains shown)
VH: QVQLVQSGAEVKKPGASVKVSCKASGYTFTNYWMQWVRQAPGQGLEWIGEIDPSDSYTNYNQKFQGRVTLTVDTSTSTAYMELSSLRSEDTAVYYCARSLSGYVDYWGQGTTVTVSS
VL: EIVMTQSPATLSLSPGERATLSCRASQDISNRLNWYQQKPGQAVRLLISYRSRRHTGIPARFSGSGSGTDYTLTISSLEPEDFAVYYCQQGNSLPPTFGGGTKLEIKR
modifications: MMAE coupled through a divinyl pyrimidine bridging linker inserted within the heavy chain-light chain disulphide linkages, drug-to-antibody ratio of 4
notes: ADC version of humanized variant 4 (clone 2.4); also called α-LGR5v4-ADC
B5 was tested, and the Kd [2] was 2 nM.
